Measured values as given in patent US20020151522A1, “Regulation of weight” (priority 2001, published 2002).
Where two headings read alike, the source gives them in different places.

Assays:
[1] = infused in the brain of adult rats with partial or full lesions, e.g. partial fimbria-fornix transection; cited from earlier work
[2] = administered to the brain of normal, unlesioned rats; cited from earlier work
[3] = intracerebroventricular, patients with Alzheimer's disease; cited from earlier work
[4] = Body weight gain over 14 days after unilateral fimbria-fornix lesion with daily intracerebroventricular infusion; assay type: in vivo, rat; settings: male Wistar rats, fimbria-fornix lesion/cannulation; icv 2 μL daily for 14 days; GPE 3 μg/day, IGF-I 20 μg/day, NGF 1 μg/day
Excerpt: A group of male Wistar rats weighing 174-193 g (University of Auckland, Animal Resources Unit) were divided randomly into the following groups: “control”, “sham”, “vehicle”, “GPE”, “IGF-I”, and “NGF”, depending on the treatment each animal was to undergo. “Control” animals were weighed at the first and last time points and were not treated or handled at any other time. “Sham” animals underwent a sham surgery of anesthesia, incision through the scalp skin, drill hole through the skull, bone wax to seal the drill hole, and sutures for the skin incision. They were then handled daily in mock infusions to mimic handling of animals that received lesions and intracerebroventricular infusions.
“Vehicle”, “GPE”, “IGF-I”, and “NGF” animals were anaesthetized with 75 mg/Kg sodium pentobarbital and positioned in a stereotaxic apparatus (Kopf Instruments, USA), and underwent unilateral fimbria-fomix lesions to lesion septal cholinergic neurons and chronic cannula implantation into the left lateral cerebral ventricle. Fomix-fimbria lesions were performed by transecting the fimbria-fornix projection using a specialized retractable wire Scouten knife (Kopf Instruments) designed to minimize tissue damage except at the required lesion site. Anaesthetized animals received an incision through their scalp skin and a small drill hole was made in the skull at the stereotaxic coordinates anterior-posterior (AP) axis −1.0 mm from the bregma and medial-lateral (ML) axis +2.5 mm from midline (left side), from an atlas of the rat brain (Paxinos et al. (1986), “The rat brain in stereotaxic coordinates”, Academic Press, London). The knife was lowered into the brain through the drill hole to the coordinate +6.0 mm ventral to the skull on the dorsal-ventral (DV) axis. The knife blade was then extended 2.5 mm toward midline at an angle of 30° caudal to the bregma. The knife, with blade extended, was then raised 4.5 mm dorsally to axotomize the fimbriafomix fibres. The blade was then retracted, the knife lowered 4.5 mm to its original coordinate, and the process was repeated. […]

[5] = Weight gain in human patient suffering from a head injury, central administration for 14 days; assay type: in vivo
Procedure: GPE in a dose of 10 μg/Kg/day is administered via lateral cerebroventricular injection into the brain of a human patient suffering from a head injury to promote weight gain to normal levels. Alternatively, a GPE analog is administered. Treatment is commenced as soon as possible after the head injury and then for 14 days thereafter.
A GPE analog in a dose of 20 μg/Kg/day is administered via focal injection into the lateral cerebral ventricle of a human patient suffering from a head injury to promote weight gain to normal levels. Alternatively, GPE is administered. Treatment is commenced as soon as possible after the head injury and then for 14 days thereafter.
GPE in a dose of 5 μg/Kg/day is administered via a surgically inserted shunt into the lateral cerebral ventricle of a human patient suffering from a head injury to promote weight gain to normal levels. Alternatively, a GPE analog is administered. Treatment is commenced as soon as possible after the head injury and then for 14 days thereafter.

[6] = intravenous, humans after moderate to severe head injury; cited from earlier work
[7] = administered into the brain, adult rats after transient forebrain ischemia; cited from earlier work

With NGF: Nerve growth factor as the molecule, how does the “effect on body weight” value [1] read?
Its value is “either decrease normal body weight gain or cause weight loss”.

What about the “effect on body weight” value [2] of the same molecule?
Its value is “cause weight loss”.

And the “effect on body weight” value [3]?
Its value is “marked weight reduction”.

And the “weight gain over the 14 days” value [4]?
Its value is “no weight gain”.

Which “weight gain in the patient” value ([5]; 5 μg/Kg/day via surgically inserted shunt into the lateral cerebral ventricle) does the source give for `NCC(=O)N1CCC[C@H]1C(=O)N[C@@H](CCC(=O)O)C(=O)O` [GPE, glycyl-L-prolyl-L-glutamic acid] here?
Its value is “Normal weight gain is promoted”.

And the “weight gain in the patient” value ([5]; 10 μg/Kg/day via lateral cerebroventricular injection)?
Its value is “Normal weight gain is promoted”.

And the “weight gain in the patient” value ([5]; 20 μg/Kg/day via focal injection into the lateral cerebral ventricle)?
Its value is “Normal weight gain is promoted”.

What about the “weight gain over the 14 days” value [4] of the same molecule?
Its value is “the normally expected weight gain occurred”.

What does the source list for IGF-I: insulin-like growth factor I?
effect on body weight [6]: cause weight gain; effect on body weight [7]: cause weight gain; weight gain over the 14 days [4]: minimal weight gain

Which “effect on body weight” value [1] does the source give for bFGF: basic fibroblast growth factor here?
Its value is “either decrease normal body weight gain or cause weight loss”.

B1: GDNF: glial-derived neurotrophic factor (protein, UniProt P39905 78-211, looked up)
Glial cell line-derived …: SPDKQMAVLPRRERNRQAAAANPENSRGKGRRGQRGKNRGCVLTAIHLNVTDLGLGYETKEELIFRYCSGSCDAAETTYDKILKNLSRNRRLVSDKVGQACCRPIAFDDDLSFLDDNLVYHILRKHSAKRCGCI
For B1, which “effect on body weight” value [1] is on record?
Its value is “either decrease normal body weight gain or cause weight loss”.

And the “effect on body weight” value [2]?
The value was “cause weight loss”.

B2: BDNF: brain-derived neurotrophic factor (protein, UniProt P23560 19-247, looked up)
Neurotrophic factor BDNF …: APMKEANIRGQGGLAYPGVRTHGTLESVNGPKAGSRGLTSLADTFEHVIEELLDEDQKVRPNEENNKDADLYTSRVMLSSQVPLEPPLLFLLEEYKNYLDAANMSMRVRRHSDPARRGELSVCDSISEWVTAADKKTAVDMSGGTVTVLEKVPVSKGQLKQYFYETKCNPMGYTKEGCRGIDKRHWNSQCRTTQSYVRALTMDSKKRIGWRFIRIDTSCVCTLTIKRGR
What does the source list for B2?
effect on body weight [1]: either decrease normal body weight gain or cause weight loss; effect on body weight [2]: cause weight loss
